Assay results: paper PMC8329713, “The identification and structural analysis of potential 14-3-3 interaction sites on the bone regulator protein Schnurri-3” (Acta Crystallographica. Section F, Structural Biology …, 2021)
Non-standard residues stand in square brackets, D forms with d. No end group written: not given here. *: point of attachment. FITC = O=C1OC2(c3ccc(O)cc3Oc3cc(O)ccc32)c2ccc(NC(=S)*)cc21; pS = N[C@@H](COP(=O)(O)O)C(=O)O; Ahx = NCCCCCC(=O)O

What was measured:
[1] = biological target: T1, 14-3-3ɛ (full length) (human, UniProt P62258 1-255); assay: FP
T1 chain: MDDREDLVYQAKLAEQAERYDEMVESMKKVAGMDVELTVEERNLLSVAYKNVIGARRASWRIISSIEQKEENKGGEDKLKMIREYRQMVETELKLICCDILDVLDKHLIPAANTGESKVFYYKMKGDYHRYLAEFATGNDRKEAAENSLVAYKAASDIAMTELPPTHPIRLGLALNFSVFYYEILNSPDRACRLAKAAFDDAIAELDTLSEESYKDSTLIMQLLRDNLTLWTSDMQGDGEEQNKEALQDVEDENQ

[2] = biological target: T2, 14-3-3β (full length) (human, UniProt P31946 1-246); assay: FP
T2 chain: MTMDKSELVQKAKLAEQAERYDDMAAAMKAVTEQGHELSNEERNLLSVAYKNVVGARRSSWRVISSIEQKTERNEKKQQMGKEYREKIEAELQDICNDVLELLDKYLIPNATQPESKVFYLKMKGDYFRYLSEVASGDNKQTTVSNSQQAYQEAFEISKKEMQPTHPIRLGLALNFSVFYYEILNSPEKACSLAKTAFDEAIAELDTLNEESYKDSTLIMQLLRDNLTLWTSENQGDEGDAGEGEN

[3] = biological target: T3, 14-3-3τ (full length) (human, UniProt P27348 1-245); assay: FP
T3 chain: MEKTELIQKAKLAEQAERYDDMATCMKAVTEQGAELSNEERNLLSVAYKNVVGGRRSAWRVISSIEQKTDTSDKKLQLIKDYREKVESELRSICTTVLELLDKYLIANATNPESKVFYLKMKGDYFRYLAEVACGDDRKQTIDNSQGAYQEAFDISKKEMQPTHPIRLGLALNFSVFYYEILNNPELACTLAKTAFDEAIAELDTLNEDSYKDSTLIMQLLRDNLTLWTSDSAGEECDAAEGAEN

[4] = biological target: T4, 14-3-3ζ (full length) (human, UniProt P63104 1-245); assay: FP
T4 chain: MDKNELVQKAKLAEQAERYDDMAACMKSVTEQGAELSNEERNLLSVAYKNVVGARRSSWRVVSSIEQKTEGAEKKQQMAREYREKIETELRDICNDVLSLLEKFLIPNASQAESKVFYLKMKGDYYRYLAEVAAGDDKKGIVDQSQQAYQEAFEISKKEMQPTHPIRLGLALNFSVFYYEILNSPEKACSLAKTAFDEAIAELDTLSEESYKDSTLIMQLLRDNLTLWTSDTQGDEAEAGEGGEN

[5] = biological target: T5, 14-3-3σ (full length) (human, UniProt P31947 1-248); assay: ITC; peptide titrated into the cell containing the 14-3-3 protein, 18 injections of 2 µl, 25°C; 50 mM Tris pH 7.5, 150 mM NaCl, 5 mM MgCl2, 2 mM 2-mercaptoethanol, 0.05% Tween-20 (reducing conditions); conditions: both partners purified
T5 construct: 14-3-3 protein sigma, human, full length; Expressed from a pPRoeX-Htb vector; also called 14-3-3 isoform σ; the σ isoform; source: E. coli NiCo21(DE3), purified (nickel column, TEV cleavage, second nickel column, SEC)
T5 sequence (looked up): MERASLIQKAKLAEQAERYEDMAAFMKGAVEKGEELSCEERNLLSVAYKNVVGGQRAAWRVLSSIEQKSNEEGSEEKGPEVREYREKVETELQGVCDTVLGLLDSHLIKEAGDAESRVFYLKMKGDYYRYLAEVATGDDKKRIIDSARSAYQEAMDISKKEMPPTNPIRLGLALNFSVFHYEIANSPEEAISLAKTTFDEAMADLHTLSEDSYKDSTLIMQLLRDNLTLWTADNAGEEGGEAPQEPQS

[6] = biological target: T6, 14-3-3γ (full length) (human, UniProt P61981 1-247); assay: fluorescence polarisation; 14-3-3 isoforms (full length) serially diluted twofold in the presence of 10 nM FITC-labelled peptide; 50 mM Tris pH 7.5, 150 mM NaCl, 5 mM MgCl2, 0.05% Tween-20 (no reducing agent listed); one-site specific binding model; conditions: both partners purified
T6 construct: 14-3-3 protein gamma, human, full length; Expressed from a pPRoeX-Htb vector; also called 14-3-3 isoform γ; source: E. coli NiCo21(DE3), purified (nickel column, TEV cleavage, second nickel column, SEC)
T6 sequence (looked up): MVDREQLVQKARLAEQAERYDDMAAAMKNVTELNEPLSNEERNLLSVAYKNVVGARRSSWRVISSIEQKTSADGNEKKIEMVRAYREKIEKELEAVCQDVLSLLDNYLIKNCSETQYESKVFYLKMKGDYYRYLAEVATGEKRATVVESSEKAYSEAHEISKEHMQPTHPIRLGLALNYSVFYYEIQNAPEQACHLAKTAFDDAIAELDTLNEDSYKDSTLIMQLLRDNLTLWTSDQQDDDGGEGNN

[7] = biological target: T7, 14-3-3ɛ (full length) (human, UniProt P62258 1-255); assay: as above; conditions: both partners purified
T7 construct: 14-3-3 protein epsilon, human, full length; Expressed from a pPRoeX-Htb vector; also called 14-3-3 isoform ɛ; source: E. coli NiCo21(DE3), purified (nickel column, TEV cleavage, second nickel column, SEC)
T7 sequence (looked up): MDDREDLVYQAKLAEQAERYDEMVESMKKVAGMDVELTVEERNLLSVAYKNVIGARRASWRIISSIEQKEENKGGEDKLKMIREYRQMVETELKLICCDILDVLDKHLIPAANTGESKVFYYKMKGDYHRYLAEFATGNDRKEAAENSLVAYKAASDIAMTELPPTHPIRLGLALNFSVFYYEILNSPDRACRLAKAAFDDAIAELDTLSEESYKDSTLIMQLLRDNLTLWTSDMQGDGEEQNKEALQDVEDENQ

[8] = biological target: T8, 14-3-3β (full length) (human, UniProt P31946 1-246); assay: as above; conditions: both partners purified
T8 construct: 14-3-3 protein beta/alpha, human, full length; Expressed from a pPRoeX-Htb vector; also called 14-3-3 isoform β; source: E. coli NiCo21(DE3), purified (nickel column, TEV cleavage, second nickel column, SEC)
T8 sequence (looked up): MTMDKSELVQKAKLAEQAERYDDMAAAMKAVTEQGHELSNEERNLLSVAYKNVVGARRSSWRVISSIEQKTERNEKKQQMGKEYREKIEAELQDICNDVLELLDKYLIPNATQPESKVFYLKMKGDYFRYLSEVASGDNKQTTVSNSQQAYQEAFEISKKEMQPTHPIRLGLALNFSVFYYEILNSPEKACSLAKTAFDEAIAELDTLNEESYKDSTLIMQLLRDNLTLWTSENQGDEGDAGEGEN

Kd [1]: 2510 nM
Kd [2]: 1380 nM
Kd [3]: 1910 nM
Kd [4]: 2140 nM
Kd [5]: 4800 ± 800 nM
Kd [6]: 780 ± 50 nM
binding result [7]: binds
binding result [8]: binds
B1: SHN3pS542 peptide, N-terminally FITC-Ahx-labelled (peptide)
peptide: {FITC-Ahx}-LLRSH[pS]MPSAAC
modifications: also: phosphoserine at 542, position not mapped
notes: Schnurri-3 (SHN3, transcription factor HIVEP3), human, 12-mer around phosphorylated Ser542; also called SHN3pS542-FITC; the FITC-labelled form; source: synthetic peptide, bought: GenScript (purity >95%)
